Reference: article PMC11774805, “The C-terminal α-helix is crucial for the activity of the bacterial ABC transporter BmrA” (The Journal of Biological Chemistry, 2024)

B1: Bacillus multidrug resistance ATP (BmrA) wt, full-length half-transporter (natural protein, Bacillus subtilis strain 168, UniProt O06967 1-589, looked up)
chain: MPTKKQKSKSKLKPFFALVRRTNPSYGKLAFALALSVVTTLVSLLIPLLTKQLVDGFSMSNLSGTQIGLIALVFFVQAGLSAYATYALNYNGQKIISGLRELLWKKLIKLPVSYFDTNASGETVSRVTNDTMVVKELITTHISGFITGIISVIGSLTILFIMNWKLTLLVLVVVPLAALILVPIGRKMFSISRETQDETARFTGLLNQILPEIRLVKASNAEDVEYGRGKMGISSLFKLGVREAKVQSLVGPLISLVLMAALVAVIGYGGMQVSSGELTAGALVAFILYLFQIIMPMGQITTFFTQLQKSIGATERMIEILAEEEEDTVTGKQIENAHLPIQLDRVSFGYKPDQLILKEVSAVIEAGKVTAIVGPSGGGKTTLFKLLERFYSPTAGTIRLGDEPVDTYSLESWREHIGYVSQESPLMSGTIRENICYGLERDVTDAEIEKAAEMAYALNFIKELPNQFDTEVGERGIMLSGGQRQRIAIARALLRNPSILMLDEATSSLDSQSEKSVQQALEVLMEGRTTIVIAHRLSTVVDADQLLFVEKGEITGRGTHHELMASHGLYRDFAEQQLKMNADLENKAG
notes: BmrA, ABC half-transporter of Bacillus subtilis strain 168, full length (last residue G589); Cloned into pET303-CT/His; source: E. coli, purified in presence of detergent (DDM)
B2: BmrA M580C (natural protein, Bacillus subtilis strain 168, UniProt O06967 1-589, looked up)
chain: MPTKKQKSKSKLKPFFALVRRTNPSYGKLAFALALSVVTTLVSLLIPLLTKQLVDGFSMSNLSGTQIGLIALVFFVQAGLSAYATYALNYNGQKIISGLRELLWKKLIKLPVSYFDTNASGETVSRVTNDTMVVKELITTHISGFITGIISVIGSLTILFIMNWKLTLLVLVVVPLAALILVPIGRKMFSISRETQDETARFTGLLNQILPEIRLVKASNAEDVEYGRGKMGISSLFKLGVREAKVQSLVGPLISLVLMAALVAVIGYGGMQVSSGELTAGALVAFILYLFQIIMPMGQITTFFTQLQKSIGATERMIEILAEEEEDTVTGKQIENAHLPIQLDRVSFGYKPDQLILKEVSAVIEAGKVTAIVGPSGGGKTTLFKLLERFYSPTAGTIRLGDEPVDTYSLESWREHIGYVSQESPLMSGTIRENICYGLERDVTDAEIEKAAEMAYALNFIKELPNQFDTEVGERGIMLSGGQRQRIAIARALLRNPSILMLDEATSSLDSQSEKSVQQALEVLMEGRTTIVIAHRLSTVVDADQLLFVEKGEITGRGTHHELMASHGLYRDFAEQQLKCNADLENKAG
notes: BmrA of Bacillus subtilis strain 168, full length, M580 replaced by Cys; Forms a disulfide-linked dimer without DTT; source: E. coli, purified in presence of detergent (DDM)
B3: BmrA D583C (natural protein, Bacillus subtilis strain 168, UniProt O06967 1-589, looked up)
chain: MPTKKQKSKSKLKPFFALVRRTNPSYGKLAFALALSVVTTLVSLLIPLLTKQLVDGFSMSNLSGTQIGLIALVFFVQAGLSAYATYALNYNGQKIISGLRELLWKKLIKLPVSYFDTNASGETVSRVTNDTMVVKELITTHISGFITGIISVIGSLTILFIMNWKLTLLVLVVVPLAALILVPIGRKMFSISRETQDETARFTGLLNQILPEIRLVKASNAEDVEYGRGKMGISSLFKLGVREAKVQSLVGPLISLVLMAALVAVIGYGGMQVSSGELTAGALVAFILYLFQIIMPMGQITTFFTQLQKSIGATERMIEILAEEEEDTVTGKQIENAHLPIQLDRVSFGYKPDQLILKEVSAVIEAGKVTAIVGPSGGGKTTLFKLLERFYSPTAGTIRLGDEPVDTYSLESWREHIGYVSQESPLMSGTIRENICYGLERDVTDAEIEKAAEMAYALNFIKELPNQFDTEVGERGIMLSGGQRQRIAIARALLRNPSILMLDEATSSLDSQSEKSVQQALEVLMEGRTTIVIAHRLSTVVDADQLLFVEKGEITGRGTHHELMASHGLYRDFAEQQLKMNACLENKAG
notes: BmrA of Bacillus subtilis strain 168, full length, D583 replaced by Cys; Forms a disulfide-linked dimer without DTT; source: E. coli, purified in presence of detergent (DDM)
B4: BmrA K579C (natural protein, Bacillus subtilis strain 168, UniProt O06967 1-589, looked up)
chain: MPTKKQKSKSKLKPFFALVRRTNPSYGKLAFALALSVVTTLVSLLIPLLTKQLVDGFSMSNLSGTQIGLIALVFFVQAGLSAYATYALNYNGQKIISGLRELLWKKLIKLPVSYFDTNASGETVSRVTNDTMVVKELITTHISGFITGIISVIGSLTILFIMNWKLTLLVLVVVPLAALILVPIGRKMFSISRETQDETARFTGLLNQILPEIRLVKASNAEDVEYGRGKMGISSLFKLGVREAKVQSLVGPLISLVLMAALVAVIGYGGMQVSSGELTAGALVAFILYLFQIIMPMGQITTFFTQLQKSIGATERMIEILAEEEEDTVTGKQIENAHLPIQLDRVSFGYKPDQLILKEVSAVIEAGKVTAIVGPSGGGKTTLFKLLERFYSPTAGTIRLGDEPVDTYSLESWREHIGYVSQESPLMSGTIRENICYGLERDVTDAEIEKAAEMAYALNFIKELPNQFDTEVGERGIMLSGGQRQRIAIARALLRNPSILMLDEATSSLDSQSEKSVQQALEVLMEGRTTIVIAHRLSTVVDADQLLFVEKGEITGRGTHHELMASHGLYRDFAEQQLCMNADLENKAG
notes: BmrA of Bacillus subtilis strain 168, full length, K579 replaced by Cys; Forms a disulfide-linked dimer without DTT; source: E. coli, purified in presence of detergent (DDM)
B5: BmrA N581C (natural protein, Bacillus subtilis strain 168, UniProt O06967 1-589, looked up)
chain: MPTKKQKSKSKLKPFFALVRRTNPSYGKLAFALALSVVTTLVSLLIPLLTKQLVDGFSMSNLSGTQIGLIALVFFVQAGLSAYATYALNYNGQKIISGLRELLWKKLIKLPVSYFDTNASGETVSRVTNDTMVVKELITTHISGFITGIISVIGSLTILFIMNWKLTLLVLVVVPLAALILVPIGRKMFSISRETQDETARFTGLLNQILPEIRLVKASNAEDVEYGRGKMGISSLFKLGVREAKVQSLVGPLISLVLMAALVAVIGYGGMQVSSGELTAGALVAFILYLFQIIMPMGQITTFFTQLQKSIGATERMIEILAEEEEDTVTGKQIENAHLPIQLDRVSFGYKPDQLILKEVSAVIEAGKVTAIVGPSGGGKTTLFKLLERFYSPTAGTIRLGDEPVDTYSLESWREHIGYVSQESPLMSGTIRENICYGLERDVTDAEIEKAAEMAYALNFIKELPNQFDTEVGERGIMLSGGQRQRIAIARALLRNPSILMLDEATSSLDSQSEKSVQQALEVLMEGRTTIVIAHRLSTVVDADQLLFVEKGEITGRGTHHELMASHGLYRDFAEQQLKMCADLENKAG
notes: BmrA of Bacillus subtilis strain 168, full length, N581 replaced by Cys; Forms a disulfide-linked dimer without DTT; source: E. coli, purified in presence of detergent (DDM)
B6: BmrA A582C (natural protein, Bacillus subtilis strain 168, UniProt O06967 1-589, looked up)
chain: MPTKKQKSKSKLKPFFALVRRTNPSYGKLAFALALSVVTTLVSLLIPLLTKQLVDGFSMSNLSGTQIGLIALVFFVQAGLSAYATYALNYNGQKIISGLRELLWKKLIKLPVSYFDTNASGETVSRVTNDTMVVKELITTHISGFITGIISVIGSLTILFIMNWKLTLLVLVVVPLAALILVPIGRKMFSISRETQDETARFTGLLNQILPEIRLVKASNAEDVEYGRGKMGISSLFKLGVREAKVQSLVGPLISLVLMAALVAVIGYGGMQVSSGELTAGALVAFILYLFQIIMPMGQITTFFTQLQKSIGATERMIEILAEEEEDTVTGKQIENAHLPIQLDRVSFGYKPDQLILKEVSAVIEAGKVTAIVGPSGGGKTTLFKLLERFYSPTAGTIRLGDEPVDTYSLESWREHIGYVSQESPLMSGTIRENICYGLERDVTDAEIEKAAEMAYALNFIKELPNQFDTEVGERGIMLSGGQRQRIAIARALLRNPSILMLDEATSSLDSQSEKSVQQALEVLMEGRTTIVIAHRLSTVVDADQLLFVEKGEITGRGTHHELMASHGLYRDFAEQQLKMNCDLENKAG
notes: BmrA of Bacillus subtilis strain 168, full length, A582 replaced by Cys; Forms a disulfide-linked dimer without DTT; source: E. coli, purified in presence of detergent (DDM)

Biological target: the molecule itself
Experiment: cross-linking + native gel or EMSA; blue native PAGE of purified BmrA wt and Cys variants; 0.25 mg/ml preincubated ± 100 uM DTT for 30 min at room temperature, then DDM to 1%; no ATP; 4 to 16% Bis-Tris gel; dimer to monomers

For B1, which “stoichiometry N” value is on record?
The value was 2.

With B2 as the protein, how does the “stoichiometry N” value read?
The value was 2.

How did the “stoichiometry N” value turn out when B3 was run?
Its value is 2.

How did the “stoichiometry N” value turn out when B4 was run?
The value was 2.

How did the “stoichiometry N” value turn out when B5 was run?
The value was 2.

With B6 as the protein, how does the “stoichiometry N” value read?
Its value is 2.
